The series in a line: label from the status in PepcDB records.
For the sequence “MSSTAPASQSTAEALEATASLPQAAVHDHASIMRVIGGIVLCILLAALDQTVVIPAVPAIANDLNGFGHLSWIVTAYLIVSTVTTPLYGKLSDSFGRRRLLMVAISLFILASVACALAQTLPQLILFRALQGLGGGGLMSLAQAAIADVVAPRERGRYQGYLATVWAISSIAGPLVGGWVSDHMSWRWLFWINVPLGLLAMTMCYRGLAHLKPRGGRPQVDWLGALLLAVAIVAFLLAMSWGGEAFAWISPEMAALLAISLVAVLLLAWQERRAADPMLPPRLFRNRAYVMGVGASALAALNIFLCIFALPLHFQLVRDADASMSGLLVVPFLLATVAGNFVVAWLAPRLGRMRVILTIGFVAAAVGLVSLAAVTVAVPTFFVLLAMTIGGIGLGMAMVGTLISVQNALERRDMGAGTGALLVLRSLGSSIGGALAGTLLAMEFRDALARAGVTQALDLGALRHGSEALAHLSPAVRHVLAGGVESGFHLIFAAGAVATIIALLIVRRMPDLELRSSVTEHAAKIHME”, the protein production entry is on record as “failed”.

In the case of “MLSMIGLVGGLVLLIVLTLRGMNLFISAPLCAVIVALCSGVPLLTGDVNFVSAYMDGFASFVAAWFFMFLLGSMFGKFMEDTGAADSVARWIINKLGRKQAVLAVVLACAILTYGGVSVFVVAFSVYPMALSLFKDANLPRRFIPAALAFGSVTFTMTSAGSPEIQNWIPVKYLGTSPYAAWEVSLVVAVLMATFGYWWLRKIINRAIANGEKFEAREGDPILLERKLPSPISGLIPLLVVLGLSFTFHDTLQQNALIVALLGGVIAIAVINFKHFHKPQTAIHEATTGALVAIGNTAAVVGFGSIAKITPAFDAAVTAMTSLPGNELVGAAVAVSVIAGLTGSASGGQAIALPEVGPHYMAAGVNPEQLHRIVSISSGALDSLPHNGYVVTTIRAICNEKHSAAYWAVAAVTVVVPLMGLAVAIGLFML”, the protein production entry is recorded as “failed”.

As to “MPTLKSYFLKDTSLRTEILAGATTFLTMVYIVFVNPKVLHDAGMDQGAVFTATCLITAFACALTGFIANTPIGVAPSVALNIYFSYSVVQGMGVDWQHALAMVFISGLLFLFLTLTKLRRLLVEAIPHNLQIAIVIGISLLIALIALENNQIIIGDQHNLMRLGSIIRPETGLFFLGFILILTLDYHKIPGAIIIGILSISVLSLILGLTSWQGLIAMPPSLEPTFLQLDFSGLSSIVALKTIFTFFLITVFDATGSLIGLLSPTIFKHEKNYYKRLTRSLTADAAASSLAGLMGSASTSPYIESATGIEAGGRTGLTALVIATGFILMLFLFPLAKMIPSFAVGPALLYVACCMIKHITNMKLQDITETAPCMVIIMMVPFTASIADGIGLGIILYTLLKLFTRQKPNPLIIVLSLVFTVFFLIN”, the protein production result was “failed”. Regarding “MGQKAKAQAPTTHPRPHTLSSQVAPALPRRPRHAAPESLRQARGEVMKAHLITYGCQMNEYDTHLVQSQLVSFGADIVESPDEADFVLVNTCAVRGKPVDKVRSLLGDLRKQKAQRSLVVGMMGCLAQLEEGQQIARKFEVDVLLGPGSLLDIGAALESNERFWGLQFKDELHDHIPPPPSGKLQAHLTIMRGCDHHCTYCIVPTTRGPQVSRHPDDILRELDMQLAAGVREVTLLGQNVNAYGVDQGAKLKGYPSFADLLRMVGASGIERVKFTTSHPMNFTEDVAAAIGETPAICEFVHLPVQSGSDRVLRRMAREYNREKYLTHIAQIKKHIPDVVLATDIIVGFPGETEEDFQDTLSLYDEVGYDSAYMFIYSPRPGTPSYKHFQDLPRELKTERLQRLIARQKDWSARKNAQKVGTVQQVLLRGDAHDAGFLEGHTRGNHPTVVPKAIGADGAGVYQVRIDHATPHMMYGHILGPDGQPLPEQPRFNPEAAAVGGALPML”, the protein production result is on record as “failed”. For “MGGIARLYGDSALAHFSQAHVCVVGVGGVGSWAVEALARTGIGRLTLIDLDNVAESNVNRQLHALTGDFGKAKVTALRERITQINPQCEVFEIEDFVTEDNLPEYFGKGFDFVIDAIDQVRVKAAMAAYFVERKQPFVLSGGAGGQKNPALIQTADLSRVTHDPLLANLRYTLRKRYGFSRDTKANMRVPCVYSTENIVPPQSREACSADAAPQGLSCAGYGASMLVTASFGLYCAQAAVEHIADKKLEHHHHHH”, the protein production result was “failed”. With “MAITVSIELNRDLEIPASYDEVFDLLADVPKSASHFPKVDKLVDLGNNAYRWEMEKVGVDKHAIQSVYACTYHADKEAGKITWSPIKGEGNGVVSGSWTLSAKGDNATAVKFQTSAELTVPLPSLLKLAISPVIKHEFNSLVDTYMANLKKAFLEHHHHHH” the entry was “not failed”; with “MLMEIRESVKERIEEIIKEIAPQWEGEIELKETPDPKLGDFGTPIAFKLAKLLKRPPIEIAEKIVEKLKLNLPEGIKDVKAVNGYINVFIDYPHFARILINDILAKGDRFGSSEIGKGKKVIVEHTSVNPTKPLHMGHARNAILGDVMARILRFLGYEVEVQNYIDDLGIQFAQVYWGYLRLKEEFERIMNELRERGLKDNPIDHALGLLYVEVNRRLEDNPELENEIRDIMKKLESGELYGRKLAEEVVRAQMVTTYKLGVKYDLLVWESDIVRRKLFEIALELLSKNENFYIPSDGKYRGAFVMDLRKLFPDMKNPILVLRRSDGTATYTGKDIAYHLWKFGKIDVDLLYKEWDSTTWTTAPDGKSMPNKFGNANIVINVIGAEQKHPQLAIKYALQLLGFEDAAANLYHLAYEHVERPEGKFSGRKGTWVGFTVDEVIQEAVKRARELIEEKNPALSDEEKAEVAEKVGIGAIRYNLIKYSPDKKIIFRWEDVLNFEGESAPYIQYAHARCSSILRKAEEEGIKVDPETLFKNADFTKLSERERELVIMLSKFPRIVEQAGKDVKPHLIAWFANELASLFNKFYMDHPVLKAEEGVREARLLLVMAVEQVLKNALYLMGIEAPERM”, “not failed”. With “MAAMQWCGAMTRRIMMTQRTSAALNCSARYSSLSPACAAPAVSEMDLCGRGDKKTKKGKRFKGSYGNSRGKKQKMIERIKDKLELPRSTPWPLPFKLI” the entry was “not failed”; with “MNAPEIAAFKAERREPDKTDVDKLTGELDIRSEIWLIFDDLSTILEDQHFADKGVELLFSSLRYNTHNAKIIVTSRIVPIFENGESLIDVVEDEEKQNLKGLRKDYAVDYLVSNGLDKVEHEKLEELATGVDGHPLALKLLVELVKEFGVKDTLEDLSMYQESKDDTIKKARRLFDKLAGEEKELLESISVYREPVDMKGLREMFTLNTPKNAVKKLTDKSLLENDHNGSYWLHPLVQEFSYKDLKNKKEAHILAVKYCLSLPLPENPTKKGDVQPLIEAHYHTCAAKEYDAAAEIIFHFKLYEMLERWGNYNTLIELYEGVLPKSHFEDEPLLKNKEFHISILGNLGNVYTVLNEGKKAIQYHEKVVELNKGATNKFNEIISISNIGLFYFQQGMMKKAIECFEQTLKISNHDNQKGISGANLGNIGLVYLQIGEPKKAIQYFEKSLPLLKEANDKRREGANLGHMGMAYLQLNEAKEAVQCIQQSMYIAEEINDKRSIGNCFGNMGIIHSFFGEMKEALESYEQALSIAKEIDDRCNLGNWLGNKGRVYFDSGEIEKAIEFYKHALRIAKEINDVVREGLWIENLGQAFSYQGEFKKAIEYYEQALKISREIGNISAEGNLLENMGLAYYSLGEPRKAIEFLKESLAIRKAIEDPKIIGFCEQKLKELKGYDE”, “failed”; with “MSVNTNEGSKNLWKDLPLELLSSVMTFLEIKDNVRASVVCKSWFEAAVSVRVIDKSPWLMYFPETKNTYDFYDPSNCKKYTMELPKSLVGFIVRYSKDGWLLMSQEDSSHFVLFNPFTMDVVALPFLHLFTYYQLVGFSSAPTSSECVVFTIKDYDPGHVTIRTWSPGQTMWTSMQVESQFLDVDHNNVVFSNGVFYCLNQRNHVAVFDPSLRTWNVLDVPPPRCPDDKSWNEGKFMVGYKGDILVIRTYENKDPLVFKLDLTRGIWEEKDTLGSLTIFVSRKSCESRTYVKDGMLRNSVYFPELCYNEKQSVVYSFDEGRYHLREHDLDWGKQLSSDNIWIEPPKNAFELV”, “failed”.
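Also: failed if final PepcDB status was selected cloned or expressed and not failed if soluble or beyond.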
